Test results reported in paper PMC3835729.

Substrate: Nc1ncnc2c1ncn2[C@@H]1O[C@H](COP(=O)(O)OC(=O)CCc2c[nH]c3ccccc23)[C@@H](O)[C@H]1O
Assay: purified protein
Details: 20 mM HEPES, 1 mM MgCl2, pH 7.2, 25 °C

B1: human histidine triad nucleotide binding protein 1 (hHint1) (Homo sapiens; H114A) (protein)
chain: ADEIAKAQVARPGGDTIFGKIIRKEIPAKIIFEDDRCLAFHDISPQAPTHFLVIPKKHISQISVAEDDDESLLGHLMIVGKKCAADLGLNKGYRMVVNEGSDGGQSVYHVHLAVLGGRQMHWPPG
- Km: 0.12 ± 0.01 µM
- kcat: 0.69 ± 0.05 s⁻¹
- kcat/Km: 6e+06 ± 1e+06 M⁻¹ s⁻¹
